One test deals with CD8+ T cells. Nature of the test: In vitro T-cell priming assay with aAPCs (in vitro immunogenicity for MHC class I presented peptides). In kind it is cell-based, human. As to conditions: in vitro immunogenicity, HLA B*07.
The target of a further test is HLA-B*07 (Homo sapiens, UniProt P01889). Briefly: MHC binding assay (UV-ligand exchange, β2m ELISA). The text has this:
Candidate peptides for T cell based therapies according to the present invention were further tested for their MHC binding capacity (affinity). The individual peptide-MHC complexes were produced by UV-ligand exchange, where a UV-sensitive peptide is cleaved upon UV-irradiation, and exchanged with the peptide of interest as analyzed. Only peptide candidates that can effectively bind and stabilize the peptide-receptive MHC molecules prevent dissociation of the MHC complexes. To determine the yield of the exchange reaction, an ELISA was performed based on the detection of the light chain (β2m) of stabilized MHC complexes. The assay was performed as generally described in Rodenko et al. (Rodenko et al., 2006).
96 well MAXISorp plates (NUNC) were coated over night with 2 ug/ml streptavidin in PBS at room temperature, washed 4× and blocked for 1 h at 37° C. in 2% BSA containing blocking buffer. […] Peptide-MHC monomers of the UV-exchange reaction were diluted 100-fold in blocking buffer. Samples were incubated for 1 h at 37° C., washed four times, incubated with 2 ug/ml HRP conjugated anti-β2m for 1h at 37° C., washed again and detected with TMB solution that is stopped with […]. Absorption was measured at 450 nm. Candidate peptides that show a high exchange yield (preferably higher than 50%, most preferred higher than 75%) are generally preferred for a generation and production of antibodies or fragments thereof, and/or T cell receptors or fragments thereof, as they show sufficient avidity to the MHC molecules and prevent dissociation of the MHC complexes.
On the technique in general: An ELISA detects its analyte on a solid surface through an enzyme-linked reagent.

As to “220 (SPSVSQLSVL; listed as Homo sapiens) [compound 220]”, in the test with CD8+ T cells, the “Wells positive [%]” value was ““++++” (>=70% = ++++)”. Also, in the test with HLA-B*07, the “Peptide exchange (peptide exchange yield, MHC class I binding score)” value (from here on “Peptide exchange”) is ““++++” (>75% = ++++)”.
As to “221 (VPDVAQFVL; listed as Homo sapiens) [compound 221]”, in the test with CD8+ T cells, the “Wells positive [%]” value is given as ““++” (20%-49% = ++)”. Further, in the test with HLA-B*07, the “Peptide exchange” value is on record as ““++++” (>75% = ++++)”.
Taken in the same sequence, the figures for “222 (NPFYPEVEL; listed as Homo sapiens) [compound 222]” were ““+” (<20% = +)” and ““+++” (>50 = +++)”.
The corresponding values for “223 (YPKDIYSSF; listed as Homo sapiens) [compound 223]” are ““++” (20%-49% = ++)” and ““++++” (>75% = ++++)”.
The corresponding values for “224 (GPQPWHAAL; listed as Homo sapiens) [compound 224]” are ““++” (20%-49% = ++)” and ““++++” (>75% = ++++)”.
Consider “225 (LPFDGPGGIL; listed as Homo sapiens) [compound 225]”, for which the “Wells positive [%]” value in the test with CD8+ T cells is reported as ““++++” (>=70% = ++++)”. Further, the “Peptide exchange” value in the test with HLA-B*07 is ““++++” (>75% = ++++)”.
The corresponding values for “226 (SPRMSGLLSQT; listed as Homo sapiens) [compound 226]” are ““+++” (50%-69% = +++)” and ““++++” (>75% = ++++)”.
Taken in the same sequence, the figures for “228 (YPRGNHWAVGHL; listed as Homo sapiens) [compound 228]” were ““++” (20%-49% = ++)” and ““++++” (>75% = ++++)”.
The corresponding values for “231 (RPRALRDLQL; listed as Homo sapiens) [compound 231]” are ““++” (20%-49% = ++)” and ““++++” (>75% = ++++)”.
Turning to “232 (RPRALRDLQLL; listed as Homo sapiens) [compound 232]”, the “Wells positive [%]” value in the test on CD8+ T cells is given as ““+++” (50%-69% = +++)”. Also, in the test with HLA-B*07, the “Peptide exchange” value is listed as ““++++” (>75% = ++++)”.
With “233 (KPYQGNPTF; listed as Homo sapiens) [compound 233]”, the “Wells positive [%]” value in the test on CD8+ T cells is given as ““+” (<20% = +)”. Also, in the test with HLA-B*07, the “Peptide exchange” value is ““++++” (>75% = ++++)”.
With “237 (RPAATAVISL; listed as Homo sapiens) [compound 237]”, the “Wells positive [%]” value in the test on CD8+ T cells is on record as ““+” (<20% = +)”. Besides, in the test with HLA-B*07, the “Peptide exchange” value is ““+++” (>50 = +++)”.
Taken in the same sequence, the figures for “241 (SARLATDAL; listed as Homo sapiens) [compound 241]” were ““+++” (50%-69% = +++)” and ““++++” (>75% = ++++)”.
“242 (SPRWLPVSL; listed as Homo sapiens) [compound 242]”: the “Wells positive [%]” value in the test on CD8+ T cells is given as ““++++” (>=70% = ++++)”. Besides, the “Peptide exchange” value with HLA-B*07 was ““++++” (>75% = ++++)”.
On to “244 (FPYVRDFVM; listed as Homo sapiens) [compound 244]”, for which, in the test with CD8+ T cells, the “Wells positive [%]” value is given as ““+” (<20% = +)”. The “Peptide exchange” value with HLA-B*07 is on record as ““++++” (>75% = ++++)”.
Consider “245 (RIREHVPQL; listed as Homo sapiens) [compound 245]”, for which the “Wells positive [%]” value in the test on CD8+ T cells was ““++” (20%-49% = ++)”. For the same substance, the “Peptide exchange” value with HLA-B*07 is listed as ““+++” (>50 = +++)”.
Taken in the same sequence, the figures for “248 (IPNWARQDL; listed as Homo sapiens) [compound 248]” were ““++++” (>=70% = ++++)” and ““++++” (>75% = ++++)”.
The corresponding values for “249 (VPSSRILQL; listed as Homo sapiens) [compound 249]” are ““+++” (50%-69% = +++)” and ““++++” (>75% = ++++)”.
The corresponding values for “250 (SPRDFLSGL; listed as Homo sapiens) [compound 250]” are ““+” (<20% = +)” and ““++++” (>75% = ++++)”.
With “252 (SPDIRNTTV; listed as Homo sapiens) [compound 252]”, the “Wells positive [%]” value in the test with CD8+ T cells is given as ““+” (<20% = +)”. Also, the “Peptide exchange” value in the test with HLA-B*07 is listed as ““++++” (>75% = ++++)”.
Consider “274 (TPYQEHVAL; listed as Homo sapiens) [compound 274]”, for which, in the test on CD8+ T cells, the “Wells positive [%]” value is on record as ““+” (<20% = +)”. Also, the “Peptide exchange” value in the test with HLA-B*07 was ““+++” (>50 = +++)”.
As for “285 (FPSFLTNSL; listed as Homo sapiens) [compound 285]”, in the test on CD8+ T cells, the “Wells positive [%]” value is listed as ““++++” (>=70% = ++++)”. Further, the “Peptide exchange” value in the test with HLA-B*07 was ““++++” (>75% = ++++)”.
Take “290 (APYRPPDISL; listed as Homo sapiens) [compound 290]”: the “Peptide exchange” value in the test with HLA-B*07 is recorded as ““++++” (>75% = ++++)”.
Same read-out and setting: the result for “291 (SPQRLRGLL; listed as Homo sapiens) [compound 291]” reads ““++++” (>75% = ++++)”.
Take “292 (SPQRLRGLLL; listed as Homo sapiens) [compound 292]”: the “Wells positive [%]” value in the test on CD8+ T cells is recorded as ““+++” (50%-69% = +++)”. The “Peptide exchange” value with HLA-B*07 is listed as ““+++” (>50 = +++)”.
In the case of “295 (KPEGTRIAV; listed as Homo sapiens) [compound 295]”, in the test with HLA-B*07, the “Peptide exchange” value was ““++++” (>75% = ++++)”.
On to “459 (RPMQQARAQL; listed as Homo sapiens) [compound 459]”, for which, in the test with HLA-B*07, the “Peptide exchange” value is listed as ““+++” (>50 = +++)”.
Turning to “464 (YPRPGTPAA; listed as Homo sapiens) [compound 464]”, in the test with HLA-B*07, the “Peptide exchange” value is on record as ““++++” (>75% = ++++)”.
“465 (VPRPIFSQL; listed as Homo sapiens) [compound 465]”: the “Peptide exchange” value with HLA-B*07 is ““++++” (>75% = ++++)”.
On the same count and under the same terms, in the case of “466 (APYKSVTSL; listed as Homo sapiens) [compound 466]” it was ““++++” (>75% = ++++)”; in that of “467 (KPFSSFTSM; listed as Homo sapiens) [compound 467]”, ““++++” (>75% = ++++)”; in that of “468 (SPMYGQAGL; listed as Homo sapiens) [compound 468]”, ““++++” (>75% = ++++)”.
With “469 (YPENGVVQM; listed as Homo sapiens) [compound 469]”, in the test with HLA-B*07, the “Peptide exchange” value was ““++” (>20% = ++)”.
For “470 (SPNSYFRVL; listed as Homo sapiens) [compound 470]”, in the test with HLA-B*07, the “Peptide exchange” value is listed as ““++++” (>75% = ++++)”.
The same measure, in the same setting: the result for “471 (KPRPDVTNEL; listed as Homo sapiens) [compound 471]” reads ““++++” (>75% = ++++)”.
“472 (NPRATDAQL; listed as Homo sapiens) [compound 472]”: in the test with HLA-B*07, the “Peptide exchange” value is ““++++” (>75% = ++++)”.
On the same count and under the same terms, the result for “475 (RPHKPGLYL; listed as Homo sapiens) [compound 475]” reads ““++++” (>75% = ++++)”.

These data come from patent publication US11292821B2, “Peptides and combination of peptides for use in immunotherapy against lung cancer, including NSCLC, SCLC and other cancers” (Immatics Biotechnologies GmbH, priority 2017, dated 2022).
